Laboratory results: PMC4746701, “Crystal structure of SEL1L: Insight into the roles of SLR motifs in ERAD pathway” (Scientific Reports, 2016)
Substitutions are numbered along the chain they refer to. Names and notes keep the numbering of the source.

B1: GST-HRD1 N-terminal luminal loop (residues 21–42) (domain or fragment, mouse, UniProt Q9DBY1 21-42, looked up)
chain: HAYYLKHQFYPTVVYLTKSSPS
notes: HRD1 E3 ubiquitin ligase, mouse, N-terminal luminal loop, residues 21-42; also called N-terminal luminal loop of HRD1; HRD1 luminal fragment GST-fusion protein; source: GST-fusion protein immobilised on glutathione sepharose 4B beads
B2: SEL1L^cent (mouse SEL1L central domain, SLR motifs 5 to 9, residues 348–533) (domain or fragment, Mus musculus, UniProt Q9Z2G6 348-533, looked up)
chain: NSGMLEEDLIQYYQFLAEKGDVQAQVGLGQLHLHGGRGVEQNHQRAFDYFNLAANAGNSHAMAFLGKMYSEGSDIVPQSNETALHYFKKAADMGNPVGQSGLGMAYLYGRGVQVNYDLALKYFQKAAEQGWVDGQLQLGSMYYNGIGVKRDYKQALKYFNLASQGGHILAFYNLAQMHASGTGVMR
notes: Forms a homodimer (crystal, cross-linking, AUC, SEC); also called wild-type SEL1L^cent; source: purified
B3: SEL1L^cent G512A (domain or fragment, Mus musculus, UniProt Q9Z2G6 348-533, looked up)
chain: B2 chain with G165A
notes: source: purified
B4: SEL1L^cent Q460A (negative control point mutant) (domain or fragment, Mus musculus, UniProt Q9Z2G6 348-533, looked up)
chain: B2 chain with Q113A
notes: source: purified
B5: SEL1L^cent G513A (domain or fragment, Mus musculus, UniProt Q9Z2G6 348-533, looked up)
chain: B2 chain with G166A
notes: source: purified
B6: SEL1L^long (mouse SEL1L residues 337–554) (domain or fragment, Mus musculus, UniProt Q9Z2G6 337-554, looked up)
chain: RLPDEVENPGMNSGMLEEDLIQYYQFLAEKGDVQAQVGLGQLHLHGGRGVEQNHQRAFDYFNLAANAGNSHAMAFLGKMYSEGSDIVPQSNETALHYFKKAADMGNPVGQSGLGMAYLYGRGVQVNYDLALKYFQKAAEQGWVDGQLQLGSMYYNGIGVKRDYKQALKYFNLASQGGHILAFYNLAQMHASGTGVMRSCHTAVELFKNVCERGRWSER
notes: SEL1L, Mus musculus (790 amino acids), residues 337-554; also called the central region of SEL1L, residues 337–554; source: purified

What was measured:
[1] = target: T1, MBP-SEL1L SLR-C (SLR motifs 10 and 11, residues 639–719) (Mus musculus, UniProt Q9Z2G6 639-719); experiment: pull-down; 400 μg GST-HRD1 luminal fragment on glutathione sepharose 4B beads, 100 μg MBP-SEL1L protein; 150 mM NaCl, 25 mM sodium phosphate pH 7.5, 5 mM DTT; 4 °C, 15 minutes; SDS-PAGE, Coomassie; details: both partners purified
T1 construct: SEL1L, Mus musculus, residues 639-719 (SLR-C); source: purified; not shown: MBP, N-terminal, kept
T1 sequence (Q9Z2G6 639-719): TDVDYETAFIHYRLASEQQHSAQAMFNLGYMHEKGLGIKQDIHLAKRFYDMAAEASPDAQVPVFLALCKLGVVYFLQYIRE

[2] = target: the molecule itself; experiment: cross-linking; glutaraldehyde (0.005%) or dimethyl suberimidate (0.3 mM), products analysed by SDS-PAGE
[3] = target: the molecule itself; experiment: SEC; Superdex 200; 25 mM Tris, 150 mM NaCl, 5 mM DTT, pH 7.5

| Binder | stoichiometry N [2] | binding result [3] | other results |
| --- | --- | --- | --- |
| B1 | – | – | binding result [1]: binds |
| B2 | 2 | – | – |
| B3 | – | binds | – |
| B4 | – | binds | – |
| B5 | – | binds | – |
| B6 | 2 | – | – |
